{
  "source": "paper PMC3866925",
  "about": "“Functional characterization of two members of histidine phosphatase superfamily in Mycobacterium tuberculosis” (BMC Microbiology, 2013)",
  "proteins": {"B1": {"name": "C-His-Rv0489 (enzyme)", "chain": "MANTGSLVLLRHGESDWNALNLFTGWVDVGLTDKGQAEAVRSGELIAEHDLLPDVLYTSLLRRAITTAHLALDSADRLWIPVRRSWRLNERHYGALQGLDKAETKARYGEEQFMAWRRSYDTPPPPIERGSQFSQDADPRYADIGGGPLTECLADVVARFLPYFTDVIVGDLRVGKTVLIVAHGNSLRALVKHLDQMSDDEIVGLNIPTGIPLRYDLDSAMRPLVRGGTYLDPEAAAAGAAAVAGQGRG", "notes": "also called C-His-Rv0489c; cofactor dependent phosphoglycerate mutase of M. tuberculosis; not shown: His6, C-terminal, kept"}, "B2": {"name": "C-His-Rv2135c (enzyme)", "chain": "MTVILLRHARSTSNTAGVLAGRSGVDLDEKGREQATGLIDRIGDLPIRAVASSPMLRCQRTVEPLAEALCLEPLIDDRFSEVDYGEWTGRKIGDLVDEPLWRVVQAHPSAAVFPGGEGLAQVQTRAVAAVREHDRRLADQHGHDVLWLACTHGDVIKAVIADAFGMHLDSFQRITADPGSVSVVRYTQLRPFVLHVNHTGARLAPALQAAASAQGASPEPNAAVPPGDAVIGGSTD", "notes": "also called C-His-Rv2315c; not shown: His6, C-terminal, kept"}},
  "target": "the molecule itself",
  "experiment": "SEC",
  "data": [
    {"protein": "B1", "values": [
      {"measurement": "stoichiometry N", "result": 2}
    ]},
    {"protein": "B2", "values": [
      {"measurement": "stoichiometry N", "result": 4}
    ]}
  ]
}
